T1: 30-mer wild type myostatin pro peptide peptide (SEQ ID NO:15)
T1 chain: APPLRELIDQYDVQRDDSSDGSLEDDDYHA

T2: 40-mer wild type myostatin pro peptide peptide (SEQ ID NO:12)
T2 chain: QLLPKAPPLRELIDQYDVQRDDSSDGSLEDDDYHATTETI

T3: 20-mer wild type myostatin pro peptide peptide (SEQ ID NO:18)
T3 chain: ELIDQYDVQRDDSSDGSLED

T4: 30-mer R to Q mutant peptide (SEQ ID NO:16)
T4 chain: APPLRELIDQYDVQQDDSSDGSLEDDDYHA

T5: 30-mer D to A mutant peptide (SEQ ID NO:17)
T5 chain: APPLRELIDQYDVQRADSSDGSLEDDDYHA

T6: 20-mer D to A mutant peptide (SEQ ID NO:20)
T6 chain: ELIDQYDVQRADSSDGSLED

T7: 20-mer R to Q mutant peptide (SEQ ID NO:19)
T7 chain: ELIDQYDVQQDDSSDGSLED

T8: 40-mer D to A mutant peptide (SEQ ID NO:14)
T8 chain: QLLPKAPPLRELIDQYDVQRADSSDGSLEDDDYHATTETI

T9: 40-mer R to Q mutant peptide (SEQ ID NO:13)
T9 chain: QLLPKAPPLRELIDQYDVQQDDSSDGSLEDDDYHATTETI


Key:
[1] = target: D76A mutant myostatin pro peptide
D76A mutant myostatin pro peptide, sequence (chain, as listed by the source D76A): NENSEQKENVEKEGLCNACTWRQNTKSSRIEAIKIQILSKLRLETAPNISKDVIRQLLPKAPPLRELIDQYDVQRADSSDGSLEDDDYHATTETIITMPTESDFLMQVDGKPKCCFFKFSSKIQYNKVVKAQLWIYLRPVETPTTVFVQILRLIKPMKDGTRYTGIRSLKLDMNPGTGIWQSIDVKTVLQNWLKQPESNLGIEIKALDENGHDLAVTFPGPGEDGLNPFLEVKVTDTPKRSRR

[2] = target: myostatin pro peptide (wild type)
[3] = target: T1, 30-mer wild type myostatin pro peptide …
[4] = target: T2, 40-mer wild type myostatin pro peptide …
[5] = target: T3, 20-mer wild type myostatin pro peptide …
[6] = target: T4, 30-mer R to Q mutant peptide (SEQ ID …)
[7] = target: T5, 30-mer D to A mutant peptide (SEQ ID …)
[8] = target: T6, 20-mer D to A mutant peptide (SEQ ID …)
[9] = target: T7, 20-mer R to Q mutant peptide (SEQ ID …)
[10] = target: T8, 40-mer D to A mutant peptide (SEQ ID …)
[11] = target: T9, 40-mer R to Q mutant peptide (SEQ ID …)

Row | Protein | proteolytic cleavage of the mutant pro peptide in the latent complex, western blot (FIGS. 3D and E) [1] | partial proteolytic cleavage of the pro peptide in the latent complex, western blot (FIG. 3E) [2] | proteolytic cleavage of free pro peptide [2] | proteolytic cleavage of the pro peptide in the latent complex, western blot (FIG. 3D) [2] | proteolytic cleavage, SDS-PAGE and western blot with anti-pro peptide antiserum [2] | peptide cleavage, HPLC and mass spectrometry [3] | peptide cleavage, HPLC and mass spectrometry [4] | peptide cleavage, HPLC and mass spectrometry [5] | peptide cleavage, HPLC and mass spectrometry [6] | peptide cleavage, HPLC and mass spectrometry [7] | peptide cleavage, HPLC and mass spectrometry [8] | peptide cleavage, HPLC and mass spectrometry [9] | peptide cleavage, HPLC and mass spectrometry [10] | peptide cleavage, HPLC and mass spectrometry [11]
1 | bone morphogenic protein-1 (BMP-1) (protein) AATSRPERVWPDGVIPFVIGGNFTGSQRAVFRQAMRHWEKHTCVTFLERTDEDSYIVFTYRPCGCCSYVGRRGGGPQAISIGKNCDKFGIVVHELGHVVGFWHEHTRPDRDRHVSIVRENIQPGQEYNFLKMEPQEVESLGETYDFDSIMHYARNTFSRGIFLDTIVPKYEVNGVKPPIGQRTRLSKGDIAQARKLYKCPACGETLQDSTGNFSSPEYPNGYSAHMHCVWRISVTPGEKIILNFTSLDLYRSRLCWYDYVEVRDGFWRKAPLRGRFCGSKLPEPIVSTDSRLWVEFRSSSNWVGKGFFAVYEAICGGDVKKDYGHIQSPNYPDDYRPSKVCIWRIQVSEGFHVGLTFQSFEIERHDSCAYDYLEVRDGHSESSTLIGRYCGYEKPDDIKSTSSRLWLKFVSDGSINKAGFAVNFFKEVDECSRPNRGGCEQRCLNTLGSYKCSCDPGYELAPDKRRCEAACGGFLTKLNGSITSPGWPKEYPPNKNCIWQLVAPTQYRISLQFDFFETEGNDVCKYDFVEVRSGLTADSKLHGKFCGSEKPEVITSQYNNMRVEFKSDNTVSKKGFKAHFFSEKRPALQPPRGRPHQLKFRVQKRNRTPQ | completely resistant to proteolysis by each of the four proteinases | BMP-1, mTLL-1, and mTLL-2, were approximately equally effective in cleaving the pro peptide | All four of these proteinases also cleaved pro peptide that had been purified away from the C-terminal dimer | incubation of the purified latent complex with purified BMP-1 resulted in complete cleavage of the pro peptide to generate a single product | A discrete proteolytic cleavage product of the pro peptide was detected in each reaction containing one of the four proteases |  |  |  |  |  |  |  |  | 
2 | mammalian Tolloid-like-2 (mTLL-2) (protein) ATTSRTERIWPGGVIPYVIGGNFTGSQRAIFKQAMRHWEKHTCVTFIERTDEESFIVFSYRTCGCCSYVGRRGGGPQAISIGKNCDKFGIVAHELGHVVGFWHEHTRPDRDQHVTIIRENIQPGQEYNFLKMEAGEVSSLGETYDFDSIMHYARNTFSRGVFLDTILPRQDDNGVRPTIGQRVRLSQGDIAQARKLYKCPACGETLQDTTGNFSAPGFPNGYPSYSHCVWRISVTPGEKIVLNFTSMDLFKSRLCWYDYVEVRDGYWRKAPLLGRFCGDKIPEPLVSTDSRLWVEFRSSSNILGKGFFAAYEATCGGDMNKDAGQIQSPNYPDDYRPSKECVWRITVSEGFHVGLTFQAFEIERHDSCAYDYLEVRDGPTEESALIGHFCGYEKPEDVKSSSNRLWMKFVSDGSINKAGFAANFFKEVDECSWPDHGGCEHRCVNTLGSYKCACDPGYELAADKKMCEVACGGFITKLNGTITSPGWPKEYPTNKNCVWQVVAPAQYRISLQFEVFELEGNDVCKYDFVEVRSGLSPDAKLHGRFCGSETPEVITSQSNNMRVEFKSDNTVSKRGFRAHFFSDKDECAKDNGGCQHECVNTFGSYLCRCRNGYWLHENGHDCKEAGCAHKISSVEGTLASPNWPDKYPSRRECTWNISSTAGHRVKLTFNEFEIEQHQECAYDHLEMYDGPDSLAPILGRFCGSKKPDPTVASGSSMFLRFYSDASVQRKGFQAVHSTECGGRLKAEVQTKELYSHAQFGDNNYPSEARCDWVIVAEDGYGVELTFRTFEVEEEADCGYDYMEAYDGYDSSAPRLGRFCGSGPLEEIYSAGDSLMIRFRTDDTINKKGFHARYTSTKFQDALHMKK | completely resistant to proteolysis by each of the four proteinases | BMP-1, mTLL-1, and mTLL-2, were approximately equally effective in cleaving the pro peptide | All four of these proteinases also cleaved pro peptide that had been purified away from the C-terminal dimer |  | A discrete proteolytic cleavage product of the pro peptide was detected in each reaction containing one of the four proteases | The 40-mer, 30-mer, and 20-mer wild type and R→Q mutant peptides were cleaved by conditioned media containing TLL-2 | The 40-mer, 30-mer, and 20-mer wild type and R→Q mutant peptides were cleaved by conditioned media containing TLL-2 | The 40-mer, 30-mer, and 20-mer wild type and R→Q mutant peptides were cleaved by conditioned media containing TLL-2 | The 40-mer, 30-mer, and 20-mer wild type and R→Q mutant peptides were cleaved by conditioned media containing TLL-2 | the peptides containing the D→A mutation at the P1′ position were not cleaved | the peptides containing the D→A mutation at the P1′ position were not cleaved | The 40-mer, 30-mer, and 20-mer wild type and R→Q mutant peptides were cleaved by conditioned media containing TLL-2 | the peptides containing the D→A mutation at the P1′ position were not cleaved | The 40-mer, 30-mer, and 20-mer wild type and R→Q mutant peptides were cleaved by conditioned media containing TLL-2
3 | mammalian Tolloid-like-1 (mTLL-1) (protein) AATSRTERIWPGGVIPYVIGGNFTGSQRAMFKQAMRHWEKHTCVTFIERSDEESYIVFTYRPCGCCSYVGRRGNGPQAISIGKNCDKFGIVVHELGHVIGFWHEHTRPDRDNHVTIIRENIQPGQEYNFLKMEPGEVNSLGERYDFDSIMHYARNTFSRGMFLDTILPSRDDNGIRPAIGQRTRLSKGDIAQARKLYRCPACGETLQESNGNLSSPGFPNGYPSYTHCIWRVSVTPGEKIVLNFTTMDLYKSSLCWYDYIEVRDGYWRKSPLLGRFCGDKLPEVLTSTDSRMWIEFRSSSNWVGKGFAAVYEAICGGEIRKNEGQIQSPNYPDDYRPMKECVWKITVSESYHVGLTFQSFEIERHDNCAYDYLEVRDGTSENSPLIGRFCGYDKPEDIRSTSNTLWMKFVSDGTVNKAGFAANFFKEEDECAKPDRGGCEQRCLNTLGSYQCACEPGYELGPDRRSCEAACGGLLTKLNGTITTPGWPKEYPPNKNCVWQVVAPTQYRISVKFEFFELEGNEVCKYDYVEIWSGLSSESKLHGKFCGAEVPEVITSQFNNMRIEFKSDNTVSKKGFKAHFFSDKDECSKDNGGCQHECVNTMGSYMCQCRNGFVLHDNKHDCKEAECEQKIHSPSGLITSPNWPDKYPSRKECTWEISATPGHRIKLAFSEFEIEQHQECAYDHLEVFDGETEKSPILGRLCGNKIPDPLVATGNKMFVRFVSDASVQRKGFQATHSTECGGRLKAESKPRDLYSHAQFGDNNYPGQVDCEWLLVSERGSRLELSFQTFEVEEEADCGYDYVELFDGLDSTAVGLGRFCGSGPPEEIYSIGDSVLIHFHTDDTINKKGFHIRYKSIRYPDTTHTKK | completely resistant to proteolysis by each of the four proteinases | BMP-1, mTLL-1, and mTLL-2, were approximately equally effective in cleaving the pro peptide | All four of these proteinases also cleaved pro peptide that had been purified away from the C-terminal dimer |  | A discrete proteolytic cleavage product of the pro peptide was detected in each reaction containing one of the four proteases |  |  |  |  |  |  |  |  | 

Reference: patent US20040138118
